The results in this text go back to US20240165252A1, “ANTIBODY-DRUG CONJUGATE AND MEDICAL USE THEREOF” (Shanghai Hansoh Biomedical Co., Ltd., priority 2021, published 2024).

In test [1] the target is BCMA expressed on cells (HEK-293T cells overexpressing BCMA; NCI-H929 tumor cells) (human) (UniProt Q02223). The experiment in a line: cell-based or functional assay.
The target in test [2] is T1, BCMA expressed on cells (HEK-293T cells overexpressing BCMA; NCI-H929 tumor cells) (human, UniProt Q02223 1-184).
T1 construct: whole, on cells; also called HEK-293T/BCMA cells; NCI-H929 cells
T1 sequence (looked up): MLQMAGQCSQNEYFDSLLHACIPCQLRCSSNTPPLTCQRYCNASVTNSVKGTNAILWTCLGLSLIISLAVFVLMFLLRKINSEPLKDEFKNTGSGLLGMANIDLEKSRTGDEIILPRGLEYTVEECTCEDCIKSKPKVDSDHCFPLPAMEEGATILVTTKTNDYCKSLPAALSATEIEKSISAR
Put plainly: flow cytometry on NCI-H929 cells. As for the experimental part: (§1) The cultured cells with high BCMA expression (HEK-293T cells overexpressing BCMA; tumor cells expressing BCMA, NCI-H929) were collected. The cell density was adjusted and the cells were plated on a 96-well U-bottomed plate at 1×10⁵ to 2×10⁵ cells per well. The plate was centrifuged at 1200 g for 5 min and the supernatant was removed. 100 μl of gradient diluted antibody solution or mouse immunized serum was added and incubated at 4° C. for 60 min. The plate was centrifuged at 1200 g for 5 min and the supernatant was removed. The cells were washed twice with PBS. A fluorescently labeled secondary antibody (PE-GAH or PE-GAM) was added at 100 μl per well and incubated at 4° C. for 60 min. The plate was centrifuged at 1200 g for 5 min and the supernatant was removed. The cells were washed twice with PBS and then re-suspended in PBS. The signal was detected by using a flow cytometer, and a concentration curve was plotted for result analysis.

The target in test [3] is T1, BCMA expressed on cells (HEK-293T cells …). The experiment in a line: flow cytometry on HEK-293T/BCMA cells. The protocol:
as §1

Test [4] deals with T2, His-tagged extracellular domain of human BCMA (BCMA-His) (human).
T2 construct: Bought protein; also called BCMA His protein; human BCMA His antigen
T2 chain: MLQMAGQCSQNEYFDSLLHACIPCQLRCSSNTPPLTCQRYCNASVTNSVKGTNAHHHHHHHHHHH
Put plainly: indirect ELISA, BCMA His coated on plate. The protocol:
(§2) After washing, the plate 4 times with PBST (pH 7.4 PBS containing 0.05% Tween-20), 3% bovine serum albumin (BSA) blocking solution diluted with PBST was added at 150 μl/well and incubated at room temperature for 1 hour for blocking. After completion of the blocking, the blocking solution was discarded, and the plate was washed 4 times with PBST buffer.
(§3) The antibody to be tested was 10-fold gradient diluted with PBST containing 3% BSA with the initial concentration of 1 μM to obtain 10 dilutions which were added to the microtiter plate at 100 μl/well and incubated at room temperature for 1 hour. After completion of the incubation, the plate was washed 4 times with PBST. HRP-labeled goat-anti-human secondary antibody (Abcam, Cat #ab97225) diluted with PBST containing 3% BSA was added at 100 μl/well and incubated at room temperature for 1 hour. The plate was washed 4 times with PBST, and then TMB chromogenic substrate (Cell Signaling Technology, cat #7004S) was added at 100 μl/well and incubated at room temperature in the dark for 1 minute. The stop solution (Cell Signaling Technology, cat #7002S) was added at 100 μl/well to terminate the reaction. The absorbance value at 450 nm was read with a microplate reader (BioTek, model Synergy H1). The data were analyzed.
(In general: ELISA stands for enzyme-linked immunosorbent assay.)

For test [5], the target named is T1, BCMA expressed on cells (HEK-293T cells …). The experiment in a line: cell-based or functional assay.
Test [6] addresses T2, His-tagged extracellular domain of …. The experiment in a line: indirect ELISA, BCMA-His coated on plate. The protocol: as §2, §3
Test [7] deals with T1, BCMA expressed on cells (HEK-293T cells …). Put plainly: cell-based or functional assay. This is another data set of the same source.

IgG1 iso ADC (y = 4) (antibody): in test [1], the Killing Effect (IC50 nM) NCI-H929 is over 133 nM.

B1: murine monoclonal antibody M1 (antibody, V domains shown)
VH: QVQLQQSGAELVRPGASVKLSCKALGYSFSDYEMHWVRQTPVHGLEWIGGIHPGSGGSAYNQKFKGKATLTVDKSSSTAYMELSSLTSEDSAVYYCTRLDYGYSWAWFPYWGQGTLVTVSA
VL: EILLTQSPAIIVTSPGEKVTITCSASSSVIYMNWYQQKPGSSPKIWIYGISNLASGVPARFSGSGSGTSFSFTINSMEAEDVATYYCQQRSSYPLTFGAGTKLELK
notes: It is a hybridoma-derived murine antibody, yet the ELISA protocol names a goat-anti-human secondary antibody; also called murine antibody M1
As usually defined, the EC50 is the midpoint of the concentration-response curve. B1: the EC50 is 128 nM in test [2], 115 nM in test [3] and 0.53 nM in test [4].

B2: humanized anti-BCMA antibody Ab2 (antibody, human IgG1, kappa, V domains shown)
VH: QVQLVQSGAEVKKPGASVKVSCKASGYSFSDYEMHWVRQAPGQGLEWIGGIHPGSGGSAYNQKFKGRVTLTVDKSTSTAYMELSSLRSEDTAVYYCTRLDYGYSWAWFPYWGQGTLVTVSA
VL: EIVLTQSPATLSLSPGERATLSCSASSSVIYMNWYQQKPGQSPKIWIYGISNLASGVPARFSGSGSGTDFTLTISSLEPEDFAVYYCQQRSSYPLTFGGGTKVEIKR
notes: Human IgG1/kappa, expressed in HEK293 cells
As for B2, in test [5], the “Endocytosis efficiency %, 0.5 hour” value was determined as 36.7% and the “Endocytosis efficiency %, 2 hours” value was determined as 48%. Also, the EC50 in test [2] came to 3.5 nM. In addition, in test [6], the EC50 was found to be 0.033 nM.

B3: antibody drug conjugate ADC2 (y = 4) (antibody, human IgG1, kappa, V domains shown)
VH: QVQLVQSGAEVKKPGASVKVSCKASGYSFSDYEMHWVRQAPGQGLEWIGGIHPGSGGSAYNQKFKGRVTLTVDKSTSTAYMELSSLRSEDTAVYYCTRLDYGYSWAWFPYWGQGTLVTVSA
VL: EIVLTQSPATLSLSPGERATLSCSASSSVIYMNWYQQKPGQSPKIWIYGISNLASGVPARFSGSGSGTDFTLTISSLEPEDFAVYYCQQRSSYPLTFGGGTKVEIKR
modifications: Linker-drug compound D (exatecan derivative) coupled to Ab2 after TCEP reduction. Average load y = 4 per antibody. Sites not stated.
In the case of B3, in test [7], the “Killing Effect (IC50 nM) NCI-H929” value came to 0.76 nM.

B4: humanized anti-BCMA antibody Ab3 (antibody, human IgG1, kappa, V domains shown)
VH: QVQLVQSGAEVKKPGASVKVSCKASGYSFSDYEMHWVRQAPGQGLEWIGGIHPGSGGSAYNQKFKGKATLTVDKSTSTAYMELSSLRSEDTAVYYCTRLDYGYSWAWFPYWGQGTLVTVSA
VL: EILLTQSPATLSLSPGERATLTCSASSSVIYMNWYQQKPGSSPKIWIYGISNLASGVPARFSGSGSGTSFTLTISSLEPEDFAVYYCQQRSSYPLTFGGGTKVEIKR
notes: as for B2
With B4, the “Endocytosis efficiency %, 0.5 hour” value in test [5] worked out at 35.5%. In test [5], the “Endocytosis efficiency %, 2 hours” value was determined as 45.7%. For the same molecule, the EC50 in test [2] was 3.9 nM; in test [6], 0.034 nM.

B5: humanized anti-BCMA antibody Ab1 (antibody, human IgG1, kappa, V domains shown)
VH: QVQLVQSGAEVKKPGASVKVSCKASGYSFSDYEMHWVRQAPGQGLEWMGGIHPGSGGSAYNQKFKGRVTMTRDTSTSTVYMELSSLRSEDTAVYYCTRLDYGYSWAWFPYWGQGTLVTVSA
VL: EIVLTQSPATLSLSPGERATLSCSASSSVIYMNWYQQKPGQAPRLLIYGISNLASGIPARFSGSGSGTDFTLTISSLEPEDFAVYYCQQRSSYPLTFGGGTKVEIKR
notes: as for B2
On to B5, for which, in test [5], the “Endocytosis efficiency %, 0.5 hour” value was determined as 36.6% and the “Endocytosis efficiency %, 2 hours” value was 49.5%. In test [2], this molecule displayed an EC50 of 4.6 nM. In addition, the EC50 in test [6] came to 0.022 nM.
